Experiment [1] has as its target T1, Human LRRC15 Protein, His Tag (Acro Biosystems) (human, UniProt Q8TF66 22-538, limits assumed).
T1 construct: not shown: His tag
T1 sequence (looked up): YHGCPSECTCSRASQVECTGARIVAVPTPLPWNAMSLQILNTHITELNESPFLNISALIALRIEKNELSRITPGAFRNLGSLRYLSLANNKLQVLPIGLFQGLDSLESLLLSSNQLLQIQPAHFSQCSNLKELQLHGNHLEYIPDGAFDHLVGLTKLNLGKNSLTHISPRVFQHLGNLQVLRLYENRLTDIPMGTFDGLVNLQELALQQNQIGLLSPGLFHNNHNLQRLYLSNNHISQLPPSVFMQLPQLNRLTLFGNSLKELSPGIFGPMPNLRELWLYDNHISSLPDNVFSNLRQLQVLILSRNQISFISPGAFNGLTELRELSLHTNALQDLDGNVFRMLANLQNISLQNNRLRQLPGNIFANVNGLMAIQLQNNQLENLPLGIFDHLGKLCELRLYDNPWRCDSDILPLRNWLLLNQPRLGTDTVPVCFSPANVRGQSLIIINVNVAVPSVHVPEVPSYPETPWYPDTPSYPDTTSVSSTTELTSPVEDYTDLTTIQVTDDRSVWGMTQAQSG
Put plainly: BLI; dissociation pH 7.4 black, pH 5.4 grey [2/2); D00020 FIG. 4B (2/2]. How it is done: Desirable mutations were transferred to a humanized framework (humanized, MYT 8387-8411). After allowing for four days of protein expression, cell culture supernatants were collected, quantified by SDS-PAGE analysis, and the pH dependence of the variant was evaluated using biolayer interferometry (BLI) on an Octet RED 96e instrument. Briefly, cell culture supernatants were diluted based on qualitative expression level of the variant determined by visual examination of SDS-PAGE gels, 5 μL of cell culture supernatant was diluted into 195 μL of 1×PBST, pH 7.4 for high expressors, 25 μL of cell culture supernatant was diluted into 175 μL of 1×PBST, pH 7.4 for medium expressors and 100 μL of cell culture supernatant was diluted into 100 μL of 1×PBST, pH 7.4 for low expressors for loading onto the sensor tips. The resulting diluted supernatants were then captured on an anti-human Fc sensor (Forte Bio). A baseline was established using 1×PBST (50 mM Potassium Phosphate Buffer+150 mM NaCl+0.05% Tween 20) pH 7.4, and the […] was associated with 50 nM of LRRC15 (Human LRRC15 Protein, His Tag, Acro Biosystems) in 1×PBST pH 7.4 for 120 sec to generate an association curve. In the dissociation phase, the antibody-antigen complex on the sensor was exposed to 1×PBST pH 7.4 or pH 5.4, for 300 sec. Association and dissociation phase curves were examined for the starting ABPC antibody (with no substitutions) and each corresponding antibody variant at pH 5.4 and pH 7.4 to inform on two criteria: a) enhanced dissociation (i.e., higher koff values) at pH 5.4 due to histidine substitution compared to the starting ABPC, (with no substitutions), and b) reduced dissociation at pH 7.4 (i.e., lower koff values) compared to pH 5.4 in the antibody variant itself and with the starting ABPC (with no substitutions).
The methods of Examples 9-10 were applied to RabMAb clone 29F1 (rabbit VH SEQ ID NO: 572 and VL SEQ ID NO: 578; and humanized VH SEQ ID NO: 576 and VL SEQ ID NO: 582).
In general terms: BLI is a label-free optical method that tracks binding on a fibre tip over time.

The target of experiment [2] is T1, Human LRRC15 Protein, His Tag (Acro …). Put plainly: BLI; dissociation pH 7.4 black, pH 5.4 grey [2/2); D00026 FIG. 6B (2/2].
For experiment [3], the target named is T2, LRRC15 on the surface of LRRC15+ cells (SAOS-2, U87MG) (UniProt Q8TF66 22-581, limits assumed).
T2 sequence (looked up): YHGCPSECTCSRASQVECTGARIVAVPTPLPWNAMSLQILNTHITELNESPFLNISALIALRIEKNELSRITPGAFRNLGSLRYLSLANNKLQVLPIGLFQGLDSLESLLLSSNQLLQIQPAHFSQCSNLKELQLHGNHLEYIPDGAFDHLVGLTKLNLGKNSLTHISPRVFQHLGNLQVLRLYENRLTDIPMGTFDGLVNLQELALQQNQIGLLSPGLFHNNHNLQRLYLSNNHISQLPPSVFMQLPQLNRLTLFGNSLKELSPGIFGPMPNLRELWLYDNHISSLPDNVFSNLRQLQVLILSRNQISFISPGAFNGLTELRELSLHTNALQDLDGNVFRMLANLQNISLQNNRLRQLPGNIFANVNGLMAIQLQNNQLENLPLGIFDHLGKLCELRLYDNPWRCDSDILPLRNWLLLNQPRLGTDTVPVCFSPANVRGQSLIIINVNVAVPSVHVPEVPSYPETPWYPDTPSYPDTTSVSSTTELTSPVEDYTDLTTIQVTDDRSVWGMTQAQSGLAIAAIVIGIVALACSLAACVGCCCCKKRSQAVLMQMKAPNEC
Put plainly: cell-based or functional assay.

Experiment [4] has as its target T3, LRRC15 on LRRC15 positive cell lines SAOS2 and G292 (UniProt Q8TF66 22-581, limits assumed).
T3 construct: whole, on cells
T3 sequence (looked up): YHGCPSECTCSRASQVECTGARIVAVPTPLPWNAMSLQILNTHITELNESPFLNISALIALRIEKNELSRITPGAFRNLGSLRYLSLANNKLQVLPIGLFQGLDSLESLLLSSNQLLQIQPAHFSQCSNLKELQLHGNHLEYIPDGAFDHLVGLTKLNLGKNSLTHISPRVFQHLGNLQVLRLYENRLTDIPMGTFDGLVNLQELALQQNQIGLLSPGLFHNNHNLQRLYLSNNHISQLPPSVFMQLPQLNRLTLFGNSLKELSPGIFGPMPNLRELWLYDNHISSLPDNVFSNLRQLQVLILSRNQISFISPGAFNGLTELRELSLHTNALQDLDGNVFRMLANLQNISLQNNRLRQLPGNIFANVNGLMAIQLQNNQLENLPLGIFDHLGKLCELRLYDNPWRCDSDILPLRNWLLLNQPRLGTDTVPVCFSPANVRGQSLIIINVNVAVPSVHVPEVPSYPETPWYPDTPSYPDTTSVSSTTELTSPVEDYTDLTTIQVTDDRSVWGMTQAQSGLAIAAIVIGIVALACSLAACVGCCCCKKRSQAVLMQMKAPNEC
Put plainly: cell binding on G292 cells (LRRC15 positive), pH 6.4.

Experiment [5] addresses T3, LRRC15 on LRRC15 positive cell lines …. Put plainly: cell binding on G292 cells (LRRC15 positive), pH 7.4. Further details: unit not given here.
For experiment [6] the target is unchanged. Put plainly: cell binding on SAOS2 cells (LRRC15 positive), pH 6.4.
The target is the same in experiment [7]. Put plainly: cell binding on SAOS2 cells (LRRC15 positive), pH 7.4. The arrangement: unit not given here.

B1: MYT9496 (antibody, V domains shown)
VH: EVQLVESGGGLVQPGGSLRLSCTASGFSFSSSHWICWVRQAPGKGLEWVGCIYAGSIGSTYYASWAKGRFTISRDTSKNTVYLQMNSLRAEDTAVYYCARADNDIYNYYFNLWGQGTLVTVSS
VL: EIVMTQSPSTLSASVGDRVIITCQASENIYNYLAWYQQKPGKAPKLLIYYASTLASGVPSRFSGSGSGAEFTLTISSLQPDDFATYYCQSGYVSKSSTFGQGTKLTVL
notes: also called hu29F1 VH P102D
With B1, the binding result in experiment [1] is “binds”.

B2: MYT9505 (antibody, V domains shown)
VH: EVQLVESGGGLVQPGGSLRLSCTASGFSFSSSHWICWVRQAPGKGLEWVGCIYAGSIGSTYYASWAKGRFTISRDTSKNTVYLQMNSLRAEDTAVYYCARAPNDIYNYYFDLWGQGTLVTVSS
VL: EIVMTQSPSTLSASVGDRVIITCQASENIYNYLAWYQQKPGKAPKLLIYYASTLASGVPSRFSGSGSGAEFTLTISSLQPDDFATYYCQSGYVSKSSTFGQGTKLTVL
notes: also called hu29F1 VH N111D
For B2, the binding result in experiment [1] is recorded as “binds”.

B3: MYT9726 (antibody, V domains shown)
VH: EVQLVESGGGLVQPGGSLRLSCTASGFSFSSSHWICWVRQAPGKGLEWVGCIYAGSIGSTYYASWAKGRFTISRDTSKNTVYLQMNSLRAEDTAVYYCARAPNDIYNYYFNEWGQGTLVTVSS
VL: EIVMTQSPSTLSASVGDRVIITCQASENIYNYLAWYQQKPGKAPKLLIYYASTLASGVPSRFSGSGSGAEFTLTISSLQPDDFATYYCQSGYVSKSSTFGQGTKLTVL
notes: also called hu29F1 VH L112E
B3: the binding result in experiment [2] is “binds”.

B4: MYT9506 (antibody, V domains shown)
VH: EVQLVESGGGLVQPGGSLRLSCTASGFSFSSSHWICWVRQAPGKGLEWVGCIYAGSIGSTYYASWAKGRFTISRDTSKNTVYLQMNSLRAEDTAVYYCARAPNDIYNYYFNDWGQGTLVTVSS
VL: EIVMTQSPSTLSASVGDRVIITCQASENIYNYLAWYQQKPGKAPKLLIYYASTLASGVPSRFSGSGSGAEFTLTISSLQPDDFATYYCQSGYVSKSSTFGQGTKLTVL
notes: also called hu29F1 VH L112D
Turning to B4, the binding result in experiment [1] is reported as “binds”.

B5: MYT9725 (antibody, V domains shown)
VH: EVQLVESGGGLVQPGGSLRLSCTASGFSFSSSHWICWVRQAPGKGLEWVGCIYAGSIGSTYYASWAKGRFTISRDTSKNTVYLQMNSLRAEDTAVYYCARAPNDIYNYYFELWGQGTLVTVSS
VL: EIVMTQSPSTLSASVGDRVIITCQASENIYNYLAWYQQKPGKAPKLLIYYASTLASGVPSRFSGSGSGAEFTLTISSLQPDDFATYYCQSGYVSKSSTFGQGTKLTVL
notes: also called hu29F1 VH N111E
Regarding B5, the binding result in experiment [2] was “binds”.

B6: MYT9724 (antibody, V domains shown)
VH: EVQLVESGGGLVQPGGSLRLSCTASGFSFSSSHWICWVRQAPGKGLEWVGCIYAGSIGSTYYASWAKGRFTISRDTSKNTVYLQMNSLRAEDTAVYYCARAPNDIYNYYENLWGQGTLVTVSS
VL: EIVMTQSPSTLSASVGDRVIITCQASENIYNYLAWYQQKPGKAPKLLIYYASTLASGVPSRFSGSGSGAEFTLTISSLQPDDFATYYCQSGYVSKSSTFGQGTKLTVL
notes: also called hu29F1 VH F110E
B6: the binding result in experiment [2] is listed as “binds”.

B7: MYT9498 (antibody, V domains shown)
VH: EVQLVESGGGLVQPGGSLRLSCTASGFSFSSSHWICWVRQAPGKGLEWVGCIYAGSIGSTYYASWAKGRFTISRDTSKNTVYLQMNSLRAEDTAVYYCARAPNAIYNYYFNLWGQGTLVTVSS
VL: EIVMTQSPSTLSASVGDRVIITCQASENIYNYLAWYQQKPGKAPKLLIYYASTLASGVPSRFSGSGSGAEFTLTISSLQPDDFATYYCQSGYVSKSSTFGQGTKLTVL
notes: also called hu29F1 VH D104A
With B7, the binding result in experiment [1] is on record as “binds”.

B8: Samrotamab V205C ADC (antibody, part only; not given: V205C light chain and payload, V domains shown, part only)
VH: EVQLVQSGAEVKKPGASVKVSCKASGYKFSSYWIEWVKQAPGQGLEWIGEILPGSDTTNYNEKFKDRATFTSDTSINTAYMELSRLRSDDTAVYYCARDRGNYRAWFGYWGQGTLVTVSS
In experiment [3], B8 returned a 20 nM Efficacy (cytotoxicity of candidates against SAOS-2 cells) of 16.4.

B9: MYT5438, samrotamab ADC, Hinge Conjugated, DAR 2.0 (antibody, V domains shown)
VH: EVQLVQSGAEVKKPGASVKVSCKASGYKFSSYWIEWVKQAPGQGLEWIGEILPGSDTTNYNEKFKDRATFTSDTSINTAYMELSRLRSDDTAVYYCARDRGNYRAWFGYWGQGTLVTVSS
VL: DIQMTQSPSSLSASVGDRVTITCRASQDISNYLNWYQQKPGGAVKFLIYYTSRLHSGVPSRFSGSGSGTDYTLTISSLQPEDFATYFCQQGEALPWTFGGGTKVEIK
modifications: ADC: payload conjugated at the hinge, DAR 2.0 (payload not given) ; ADC: payload conjugated at hinge cysteines, DAR 2.0. The letters do not carry it.
notes: also called Sam; ADC, Hinge (DAR 2.0); Samrotamab WT
For B9, the Affinity in experiment [4] was 0.187; in experiment [5], 0.165; in experiment [6] it was 0.336; in experiment [7] it was 0.31.

B10: MYT2737 (antibody, V domains shown)
VH: EVQLVQSGAEVKKPGASVKVSCKASGYKFSSYWIEWVKQAPGQGLEWIGEILPGSDTTNYNEKFKDRATFTSDTSINTAYMELSRLRSDDTAVYYCARDRGNYRAWFGYWGQGTLVTVSS
VL: DIQMTQSPSSLSASVGDRVTITCRASQDISNYLNWYQQKPGGAVKFLIYHTSRLHSGVPSRFSGSGSGTDYTLTISSLQPEDFATYFCQQGEALPWTFGGGTKVEIK
notes: also called Sam; LC His Variant; samrotamab LC His Var
With B10, the Affinity in experiment [4] turned out to be 0.676; in experiment [5] it was 0.528; in experiment [6] it was 0.92; in experiment [7], 0.84.

B11: MYT3315 (antibody, V domains shown)
VH: EVQLVESGGGLVQPGGSLRLSCAVSGFSLTSYGVHWVRQATGKGLEWLGVIWAGGSTNYNSALMSRLTISKENAKSSVYLQMNSLRAGDTAMYYCATHMITEDYYGMDYWGQGTTVTVSS
VL: DIVMTQSPDSLAVSLGERATINCKSSQSLLNSRTRKNYLAWYQQKPGQSPKLLIYWASTRHSGVPDRFSGSGSGTDFTLTISSLQAEDVAVYYCKQSYNLPTFGGGTKVEIK
notes: also called hu139.10 LC His Variant; hu139.10 LC His Var
Regarding B11, the Affinity in experiment [4] was determined as 0.251; in experiment [5], 0.155; in experiment [6], 0.398; in experiment [7], 0.296.

For the origin of these results see patent US20250352661A1 (MYTHIC THERAPEUTICS, published 2025).
